Experimental data: paper PMC10730688

Molecular target: phosphonull human rod opsin 6A mutant (human) (UniProt P08100)

Toff in the BRET G-protein activation assay, untethered co-expression of Rod6A and ArrWT (comparison for the Rod6A-ArrWT fusions): 1240 s
Substance: human visual arrestin (rod arrestin, arrestin-1), wildtype (from UniProt P10523 1-405) (natural protein)
